Substitutions are numbered along the chain they refer to.

B1: Ms2 (antibody, V domains shown)
VH: QVQLKESGPGLVAPSQSLSITCTVSGFSLTSYGVHWVRQPPGKGLEWLGVIWAGGSTNYNSALMSRLSISKDNSKSQVFLKMNSLQTDDTAMYYCARDFTTATGFDYWGQGTTLTVSS
VL: DIVMTQSPSSLSVSAGEKVTMSCKSSQSLLNSGNQKNYLAWYQQKPGQPPKLLIYGASTRESGVPDRFTGSGSGTDFTLTISSVQAEDLAVYYCQNDHSYPFTFGSGTKLEIK
B2: Hu-7 (antibody, V domains shown)
VH: EVQLLESGGGLVQPGGSLRLSCAASGFTFSSYVMSWVRQAPGKGLEWVSTISGSGGSTYYADSVKDRFTISRDNSKNTLYLQMNSLRAEDTAVYYCGKPLLGGTGLWDYWGQGTLVTVSS
VL: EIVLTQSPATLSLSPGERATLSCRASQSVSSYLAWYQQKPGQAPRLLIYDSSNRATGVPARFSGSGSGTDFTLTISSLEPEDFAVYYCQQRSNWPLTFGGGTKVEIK
B3: Hu-17 (antibody, V domains shown)
VH: QVQLVQSGAEVKRPGASVKVSCRVSGYTLTALSMYWVRQAPGKGLEWMGGFDPEDGETIYAQKFQGRVTMTEDTSTGTAYMELSSLKSEDTAVYYCATRLRYFDWNYWGQGTPVTVSS
VL: DIVMTQTPLSSPVTLGQPASISCRSSQSLVHSDGNTYLSWLQQRPGQPPRLLIYKVSKRFSGVPDRFSGSGAGTDFTLKISRVEAEDVGVYYCTQGTQFPRTFGQGTKVEIK
notes: Human V regions (Trianni mice)
B4: Ms14 (antibody, V domains shown)
VH: EVQLQQSGPELVKPGASVKMSCKASGYTFTRYIIHWVKQKPGQGLEWIGYFNPYNDDSKNNEKFKGKATLTSDKSSSTAYMEISSLTSEDSAVYYCAKLRQERIAYWGQGTLVTVSA
VL: DIQMNQSPSSLSASLGDTITITCHVSQNIDVWLSWYQQKPGNIPKLLIYKASNLHTGVPSRFSGSGSGTGFTLTISSLQPEDIATYYCQQGQSYPLTFGAGTKLELK
B5: Ms11 (antibody, V domains shown)
VH: QVQLQQSGAELVKPGASVKMSCKAFGYTFTTYSIEWMKQNHGKSLEWIGNFRPYNDDTKCNEKFKGKAKLTVEKSSSTVYLELSRLTSDDSAVYYCARGSYGNSFAYWGQGTLVTVSA
VL: B1 VL
B6: Ms4 (antibody, V domains shown)
VH: EVQLQQSGPELEKPGASVKISCKASGYSFTGYNMNWVKQSNGKSLEWIGNIDPYYGGTRYNQKFKGKATLTVDRSSSTAYMQLKSLTSEDSAVYYCARLGLGNAMDYWGQGTSVTVSS
VL: B1 VL with S10F, S12T, S14T, N37S, A40T, G56W, H98Y, S99Y, K109E
B7: Hu-2 (antibody, V domains shown)
VH: QLRLQESGPGLVKPSETLSLTCAVSGGSISSSRSYWGWIRQPPGKGLELIGSIYYSGSTYYNPSLKSRVTISVDTSKNQFSLKLTSVTATDTAVYYCARQTLRYFDWLSPFDYWGQGTLVTVSS
VL: EIVMTQSPATLSLSPGERATLSCRASQSVRSNYLSWYQQKPGQAPRLLIYGTSTRATGIPARFSGSGSGTDFTLTISSLQPEDFAVYFCQQDYNLPITFGQGTRLEIK
B8: Hu-6 (antibody, V domains shown)
VH: QMQLRESGPGLVKPSETLSLTCTVSNGPISSSRYYWGWIRQPPGKGLEWIGSFHYSGSTYYKPSLKSRVTISADTSKNQLSLELSSVTAADTAVYYCARLVLRYFDWLGYFDLWGRGTLVTVSS
VL: B7 VL with I2F, V29I, T52A, G58A, F88Y
B9: Hu-9 (antibody, V domains shown)
VH: EVQLLESGGGLVQPGGSLRLSCAASGFTFSSFAMTWVRQAPGKGLEWVSSLSGSGRSTYYAASMKGRFTISRDNSKNTLYLQMNSLRAEDTAIYYCAKSLSYYHYYFDYWGQGTLVTVTS
VL: DIQLTQSPSFLSASVGDRVPITCRASQGISNFLAWYQQKPGKAPELLIHSASTLQSGVPSRFSGSGSGTEFTLTISNLQPQDFATYYCQQVNSYPLTFGGGTKVEIK
B10: Ms16 (antibody, V domains shown)
VH: QVQLQQSGAELVRPGTSVKVSCKASGYAFTNYLIEWIKQRPGQGLEWIGVINPGSGGTNYNEKLKGKATLTADKSSSTAYMQLSSLTSGDSAVYFCARYVKGNALDYWGQGTSVTVSS
VL: DIVMTQSPSSLTVTAGEKVTLSCKSSQSLFNSGNQKNYLTWYQQKPGQPPKLLIYWASTRESGVPDRFTGSGSGTDFTLTISSVQAEDLAIYYCQNSYSFPLTFGAGTKLELT
B11: Hu-12 (antibody, V domains shown)
VH: EVRLLESGGGLVQPGGSLRLSCIASGFTFSSYVMSWVRQAPGKGLEWVSGISGSGGSTYYADSVKGRFTISRDNSKNTLYLQISSLRAEDTAVYYCTKAPTLWWFFDLWGRGTLVTVSS
VL: DIQVTQSPSFLSASVGDRVTITCRASQGIRSYLAWYQQKPGKAPKLLIYAASTLQSGVPSRFSGSGSGTEFTLTISSLLPEDFATYYCQQLNSYPLTFGGGTKVEIK

T2 sequence (P56856 whole entry, canonical isoform): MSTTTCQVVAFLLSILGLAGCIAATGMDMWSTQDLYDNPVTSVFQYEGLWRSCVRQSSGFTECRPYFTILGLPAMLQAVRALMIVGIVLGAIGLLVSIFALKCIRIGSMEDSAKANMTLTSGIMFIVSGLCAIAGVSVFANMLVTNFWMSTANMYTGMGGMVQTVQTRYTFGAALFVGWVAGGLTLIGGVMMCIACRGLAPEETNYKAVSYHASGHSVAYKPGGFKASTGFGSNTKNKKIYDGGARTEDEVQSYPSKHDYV

The first experiment has as its target T1, human claudin 18 isoform 2 (claudin 18.2) (human).
T1 construct: Recombinant on transfected CHO cells (CHO-CLDN18.2) or endogenous on tumor cell lines PATU8988S, NUGC-4, KATOIII; the cell line is named under assay; also called CLDN18.2
The experiment is described as follows: immunofluorescence imaging, CHO-CLDN18.2 cells (FIG. 3B); Table 5 prints 3.0. On the procedure:
(§1) The specific cellular binding affinity of anti-Claudin18.2 antibodies was tested on CHO-CLDN18.2 (transfected CHO cell expressing recombinant human CLDN18.2) and CHO-CLDN18.1 (transfected CHO cell expressing recombinant human CLDN18.1) cells. The cells were plated in complete media containing F12 with 10% FBS, then incubated overnight at 37° C., anti-Claudin18.2 antibodies were serial diluted and added to the assay plates, incubated at 4° C. for 2 hours, followed by fixing cells and further staining the cells for 30 minutes with Alexa Fluor® 488 Goat Anti-Human IgG (H+L) secondary antibody, invitrogen Cat #A-11013 for detection. The binding was assessed by imaging the cells and quantifying the fluorescence intensity using a Biotek Cytation.
For orientation: EC50 means the concentration that produces a half-maximal response. In turn, B1 registered an EC50 of 2.8 nM. That is a single-digit nanomolar value.

The next experiment deals with T1, human claudin 18 isoform 2 (claudin …). Briefly: immunofluorescence imaging, CHO-CLDN18.2 cells, serial dilution. On the procedure:
as §1
In turn, B2 gave an EC50 of 1 nM.
Turning to B3, the EC50 was found to be 6.2 nM.
The same measure, in the same setting: then B4, with 1.1 nM.
On the same count and under the same terms, then B1, with 3 nM.
B5 registered an EC50 of 3.3 nM.
In turn, B6 gave an EC50 of 0.8 nM.
Same read-out and setting: then B7, with 1.5 nM.
The same measure, in the same setting: then B8, with 1.5 nM; and B9, with 1.1 nM.
The same measure, in the same setting: then B10, with 0.8 nM.
The molecule B11 displayed an EC50 of 1.2 nM. This EC50 and that of the molecule before are within 1.5-fold of each other.

A further experiment has the same target. Briefly: cell-based or functional assay.
Regarding B4, the “endocytosis derived cell toxicity EC50, CHO-18.2 cells (anti-IgG Fc-MMAF co-internalization)” value stood at 1.02 nM.
The same measure, in the same setting: then B1, with 2.55 nM; and B5, with 1.3 nM; and B6, with 0.98 nM.
Same read-out and setting: then B10, with 1 nM.

A further experiment has the same target. The experiment is described as follows: cell-based or functional assay. The source holds these as a separate data set.
Take B2: the “endocytosis derived cell toxicity EC50, CHO-18.2 cells (anti-IgG Fc-MMAF co-internalization)” value came to 1.65 nM.
Same read-out and setting: then B7, with 1.43 nM; and B8, with 1.69 nM; and B9, with 0.85 nM.
The same measure, in the same setting: then B11, with 2.01 nM.

The next experiment concerns the target T2, human claudin 18 isoform 1 (claudin 18.1) (human, UniProt P56856 1-261).
T2 construct: Recombinant on transfected CHO cells (CHO-CLDN18.1); also called CLDN18.1
The experiment is described as follows: imaging, CHO-CLDN18.1 cells, dose titration. On the procedure:
as §1
As to B3, the binding result is listed as “no binding (tested: 133.4 nM)”.

In the next experiment the target is T1, human claudin 18 isoform 2 (claudin …). Briefly: imaging, PATU8988S cells (endogenous CLDN18.2); +++ = EC50 between 2 nM and 20 nM. On the procedure:
(§2) Tumor cells were plated in complete media containing RPMI1640 with +10% FBS, then incubated overnight at 37° C., Claudin18.2 antibodies were serial diluted and added to the assay plates, incubated at 4° C. for 2 hours, followed by fixing cells and further staining the cells for 30 minutes with Alexa Fluor® 488 Goat Anti-Human IgG (H+L) secondary antibody (invitrogen Cat #A-11013) for detection. The binding was assessed by imaging the cells and quantifying the fluorescence intensity using a Biotek Cytation.
As to B7, the EC50 lay within 2 to 20 nM.
On the same count and under the same terms, then B8, with 2 to 20 nM.

The next experiment deals with T2, human claudin 18 isoform 1 (claudin …). The experiment is described as follows: immunofluorescence imaging on CHO cells expressing human CLDN18.1, antibody at 10 µg/ml. On the procedure:
as §1
As to B2, the binding result is recorded as “no binding (tested: 10 µg/ml)”.
B1: the binding result is recorded as “no binding (tested: 10 µg/ml)”.
Still for that read-out and setting: then B5, with “no binding (tested: 10 µg/ml)”; and B6, with “no binding (tested: 10 µg/ml)”.
As for B7, the binding result was “no binding (tested: 10 µg/ml)”.
The same measure, in the same setting: then B9, with “no binding (tested: 10 µg/ml)”.
The same measure, in the same setting: then B11, with “no binding (tested: 10 µg/ml)”.

In a further experiment the target is T1, human claudin 18 isoform 2 (claudin …). Briefly: immunofluorescence imaging, CHO-CLDN18.2 cells (FIG. 3C); Table 5 prints 0.8. The protocol:
as §1
On to B6, for which the EC50 came out at 0.75 nM.

A further experiment shares this target. The experiment is described as follows: imaging, PATU8988S cells (endogenous CLDN18.2); ++++ = EC50 less than 2 nM.
Turning to B6, the EC50 was < 2 nM.
The same measure, in the same setting: then B10, with < 2 nM.

The next experiment has as its target T2, human claudin 18 isoform 1 (claudin …). Briefly: imaging, CHO-CLDN18.1 cells, single concentration (FIG. 3A). On the procedure:
as §1
Turning to B4, the binding result was “no binding (tested: 10 µg/ml)”.
B10: the binding result was “no binding (tested: 10 µg/ml)”.

In a further experiment the target is T1, human claudin 18 isoform 2 (claudin …). Briefly: cell-based or functional assay. The source holds these as a separate data set.
Turning to B2, the “ADCC EC50, CHO-18.2 target cells (mouse FcγRIV reporter bioluminescence)” value (shortened to “ADCC EC50, CHO-18.2 target cells”) was 3.52 nM.
On the same count and under the same terms, then B7, with 3.51 nM.
For B8, the “ADCC EC50, CHO-18.2 target cells” value is 4.8 nM.
For B9, the “ADCC EC50, CHO-18.2 target cells” value was 1.1 nM.
For the molecule B11, the “ADCC EC50, CHO-18.2 target cells” value was found to be 2.26 nM.

Another experiment has the same target. Briefly: imaging, PATU8988S cells (endogenous CLDN18.2); ++ = EC50 between 20 nM and 100 nM.
The molecule B4 showed an EC50 of 20 to 100 nM.
Same read-out and setting: then B1, with 20 to 100 nM; and B5, with 20 to 100 nM.

The target is the same in a further experiment. The experiment is described as follows: imaging, PATU8988S cells (endogenous CLDN18.2); ++++ = EC50 less than 2 nM. The source holds these as a separate data set. On the procedure: as §2
For the molecule B2, the EC50 was < 2 nM.
Still for that read-out and setting: then B9, with < 2 nM.
On the same count and under the same terms, then B11, with < 2 nM.

The values are drawn from patent publication US20230067757A1 (NOVAROCK BIOTHERAPEUTICS, published 2023).
